Reference: patent US20250059292A1 (JCR PHARMACEUTICALS, published 2025)
Positions count from the first letter of the chain named. Blank lines part the entries; values can stand above or below the binder they belong to.

Key:
[1] = biological target: T1, mouse transferrin receptor extracellular domain (position 87 to position 763 of SEQ ID NO: 39) (mouse, UniProt Q62351 87-763); assay: ELISA: mouse TfR extracellular domain coated on the plate, detected with anti-hI2S monoclonal antibody and HRP-labeled secondary antibody
T1 construct: Coated on the ELISA plate at 10 ug/mL; also called mouse TfR; mTfR
Method: The binding activities of the obtained three types of proteins, mscFv-GS3-hI2S, mscFv2-GS3-hI2S, and hI2S-mscFv2, to the mouse TfR receptor were measured by the ELISA method. The ELISA method was generally performed in the following manner. To each well of a 96-well microtiter plate (Nunc), 100 μL of a mouse transferrin receptor extracellular domain having an amino acid sequence from position 87 to position 763 of an amino acid sequence represented by SEQ ID NO: 39 diluted with 0.05 M bicarbonate buffer (pH 9.6) to a concentration of 10 μg/mL was added, and the plate was allowed to stand at room temperature for at least 1 hour to adsorb the antibody to the plate. Then, 300 μL of TBS containing 1% BSA and 0.05% Tween20 was added to each well, and the plate was allowed to stand at room temperature for 1 hour. Each well was washed three times with TBS containing 0.05% Tween20 (TBS-T), followed by dilution with TBS containing 0.1% BSA and 0.05% Tween20 to 300, 100, 33.33, 11.11, 3.70, 1.23, 0.41, or 0.14 nM for mscFv-GS3-hI2S, 600, 200, 66.67, 22.22, 7.41, 2.47, 0.82, or 0.27 nM for mscFv2-GS3-hI2S, and 1200, 400, 133.33, 44.44, 14.81, 4.94, 1.65, or 0.55 nM for hI2S-mscFv2, and 100 μL of each thereof was added to each well. The plate was allowed to stand at room temperature for at least 1 hour. After the plate was washed three times with TBS-T, anti-hI2S monoclonal antibodies were diluted to 0.5 μg/mL with TBS containing 0.1% BSA and 0.05% Tween20, 100 μL thereof was added to each well, and the plate was allowed to stand at room temperature for at least 1 hour. The plate was washed three times with the TBS-T, then 100 μL of an HRP-labeled anti-human IgG polyclonal antibody (Bethyl) solution diluted to 50 ng/mL with TBS containing 0.1% BSA and 0.05% Tween20 was added to each well, and the plate was allowed to stand at room temperature for at least 1 hour. […] Then, 100 μL of a stop solution (1 N hydrochloride) was added to each well, and the absorbance at 450 nm for each well was measured using a plate reader (SpectraMax iD3, MOLECULAR DEVICES).

[2] = biological target: T1, mouse transferrin receptor …; assay: ELISA: mouse TfR extracellular domain coated on the plate, detected with anti-I2S monoclonal antibody and HRP-labeled secondary antibody
Method: The recombinant proteins of mscFv3-GS3-hI2S obtained by an ordinary method using CHO cells were measured for their binding activity to mouse transferrin receptor by the ELISA method. The ELISA method was generally performed in the following manner. To each well of a 96-well microtiter plate (Nunc), 100 μL of a mouse transferrin receptor extracellular domain having an amino acid sequence from position 87 to position 763 of an amino acid sequence represented by SEQ ID NO: 39 diluted with 0.05 M bicarbonate buffer (pH 9.6) to a concentration of 10 μg/mL was added, and the plate was allowed to stand at room temperature for at least 1 hour to adsorb the antibody to the plate. Then, 300 μL of TBS containing 1% BSA and 0.05% Tween20 was added to each well, and the plate was allowed to stand at room temperature for 1 hour. Each well was washed three times with TBS containing 0.05% Tween20 (TBS-T). Then, a solution containing mscFv3-GS3-hI2S was diluted using TBS containing 0.1% BSA and 0.05% Tween20 to a concentration of mscFv3-GS3-hI2S of 200, 66.7, 22.2, 7.41, 2.47, 0.82, and 0.27 nM, and 100 μL of the diluted solution was added to each well. The plate was allowed to stand at room temperature for at least 1 hour. […] Then, 100 μL of a stop solution (1 N hydrochloride) was added to each well, and the absorbance at 450 nm for each well was measured using a plate reader (MOLECULAR DEVICES).

T1 sequence (Q62351 87-763): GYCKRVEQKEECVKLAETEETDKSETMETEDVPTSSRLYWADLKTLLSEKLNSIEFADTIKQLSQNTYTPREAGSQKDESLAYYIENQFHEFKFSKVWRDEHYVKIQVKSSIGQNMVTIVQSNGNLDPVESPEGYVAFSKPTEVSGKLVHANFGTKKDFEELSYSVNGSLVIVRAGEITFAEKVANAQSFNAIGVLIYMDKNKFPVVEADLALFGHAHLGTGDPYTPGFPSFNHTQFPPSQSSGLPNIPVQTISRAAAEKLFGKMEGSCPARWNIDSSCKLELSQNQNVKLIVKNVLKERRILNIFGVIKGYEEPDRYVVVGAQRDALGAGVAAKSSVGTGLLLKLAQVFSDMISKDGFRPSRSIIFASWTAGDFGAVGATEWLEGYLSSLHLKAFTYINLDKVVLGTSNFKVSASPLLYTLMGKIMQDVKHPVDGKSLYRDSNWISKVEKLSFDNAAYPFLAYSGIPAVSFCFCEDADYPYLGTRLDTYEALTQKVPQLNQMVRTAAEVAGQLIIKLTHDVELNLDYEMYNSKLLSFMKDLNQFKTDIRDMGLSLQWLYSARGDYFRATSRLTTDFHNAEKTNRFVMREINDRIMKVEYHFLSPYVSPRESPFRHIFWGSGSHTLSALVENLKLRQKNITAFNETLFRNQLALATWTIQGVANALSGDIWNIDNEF

EC50 [1]: 96.7 nM
B1: hI2S-mscFv2 (conjugate in which mouse anti-mTfRscFv antibody 2 is bound to the C-terminus of hI2S) (scFv)
chain: SETQANSTTDALNVLLIIVDDLRPSLGCYGDKLVRSPNIDQLASHSLLFQNAFAQQAVCAPSRVSFLTGRRPDTTRLYDFNSYWRVHAGNFSTIPQYFKENGYVTMSVGKVFHPGISSNHTDDSPYSWSFPPYHPSSEKYENTKTCRGPDGELHANLLCPVDVLDVPEGTLPDKQSTEQAIQLLEKMKTSASPFFLAVGYHKPHIPFRYPKEFQKLYPLENITLAPDPEVPDGLPPVAYNPWMDIRQREDVQALNISVPYGPIPVDFQRKIRQSYFASVSYLDTQVGRLLSALDDLQLANSTIIAFTSDHGWALGEHGEWAKYSNFDVATHVPLIFYVPGRTASLPEAGEKLFPYLDPFDSASQLMEPGRQSMDLVELVSLFPTLAGLAGLQVPPRCPVPSFHVELCREGKNLLKHFRFRDLEEDPYLPGNPRELIAYSQYPRPSDIPQWNSDKPSLKDIKIMGYSIRTIDYRYTVWVGFNPDEFLANFSDIHAGELYFVDSDPLQDHNMYNDSQGGDLFQLLMPEVQLVESGGGLVQPGNSLTLSCVASGFTFSNYGMHWIRQAPKKGLEWIAMIAYDSSKMNYADTVKGRFTISRDNSKNTLYLEMNSLRSEDTAMYYCAVPTAHYVVDVWGQGVSVTVSSGGGGSGGGGSGGGGSDIQMTQSPASLSASLEEIVTITCQASQDIGNWLAWYQQKPGKSPQLLIAGATSLADGVPSRFSGSRSGTQFSLKISRVQVEDIGIYYCLQAANTPWTFGGGTKLELKR
notes: Enzyme-scFv fusion, recombinant from CHO cells

EC50 [2]: 4.4 nM
B2: mscFv3-GS3-hI2S (conjugate in which hI2S is bound to the C-terminus of mouse anti-mouse transferrin receptor single chain antibody mscFv 3 via the linker of … (scFv)
chain: EVQLVESGGGLVQPGNSLTLSCVASGFTFSNYGMHWIRQAPKKGLEWIAMIAYDSSKMNYADTVKGRFTISRDNSKNTLYLEMNSLRSEDTAMYYCAVPTAHYVVDVWGQGVSVTVSSGGGGSGGGGSGGGGSDIQMTQSPASLSASLEEIVTITCQASQDIGNWLAWYQQKPGKSPQLLIYGATSLADGVPSRFSGSRSGTQFSLKISRVQVEDIGIYYCLQAYNTPWTFGGGTKLELKRGGGGSGGGGSGGGGSSETQANSTTDALNVLLIIVDDLRPSLGCYGDKLVRSPNIDQLASHSLLFQNAFAQQAVCAPSRVSFLTGRRPDTTRLYDFNSYWRVHAGNFSTIPQYFKENGYVTMSVGKVFHPGISSNHTDDSPYSWSFPPYHPSSEKYENTKTCRGPDGELHANLLCPVDVLDVPEGTLPDKQSTEQAIQLLEKMKTSASPFFLAVGYHKPHIPFRYPKEFQKLYPLENITLAPDPEVPDGLPPVAYNPWMDIRQREDVQALNISVPYGPIPVDFQRKIRQSYFASVSYLDTQVGRLLSALDDLQLANSTIIAFTSDHGWALGEHGEWAKYSNFDVATHVPLIFYVPGRTASLPEAGEKLFPYLDPFDSASQLMEPGRQSMDLVELVSLFPTLAGLAGLQVPPRCPVPSFHVELCREGKNLLKHFRFRDLEEDPYLPGNPRELIAYSQYPRPSDIPQWNSDKPSLKDIKIMGYSIRTIDYRYTVWVGFNPDEFLANFSDIHAGELYFVDSDPLQDHNMYNDSQGGDLFQLLMP
notes: scFv-enzyme fusion, recombinant from CHO cells; also called mscFv 3-hI2S conjugate

EC50 [1]: 2.4 nM
B3: mscFv-GS3-hI2S (conjugate in which human iduronate-2-sulfatase is bound to the C-terminus of a mouse anti-mouse transferrin receptor single chain antibody via … (scFv)
chain: B2 chain with A52Y, A101S
notes: scFv-enzyme fusion, expressed as a recombinant protein in CHO cells and collected from the culture supernatant; also called mouse anti-mTfRscFv antibody-hI2S conjugate

EC50 [1]: 13.2 nM
B4: mscFv2-GS3-hI2S (conjugate in which hI2S is bound to the C-terminus of mouse anti-mTfRscFv antibody 2 via the linker of SEQ ID NO: 4) (scFv)
chain: B2 chain with Y182A, Y225A
notes: scFv-enzyme fusion, recombinant from CHO cells; also called mouse anti-mTfRscFv antibody 2-hI2S conjugate
